This data set relates to MS2 coat protein. Put plainly: apparent KD of MS2 coat protein; designed switch direction (-1 OFF switch, 1 ON switch): -1; higher = weaker reporter binding. A digest of the protocol: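 Designed RNA switches with common flanks were transcribed on Illumina chips by stalled E. coli RNA polymerase and titrated with SNAP-549-labelled MS2 coat protein, from 0.7 or 1.5 nM doubling to 3 µM, in Tris-HCl pH 7.5 buffer with KCl, MgCl2, BSA, DTT, tRNA and Tween-20. Steps lasted 0.8–1.5 h (lowest) to 10–20 min (highest). Titrations ran without input, with 200 uM small-molecule ligand, or with an oligonucleotide input. Normalised cluster fluorescence was curve-fitted, and apparent KD is the per-design median over clusters.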

Setting [1] is: input ligand: microRNA oligo, concentration not stated.
Setting [2] is: Eterna round: R95, input ligand: FMN 200 uM.
Setting [3] is: Eterna round: R95, input ligand: microRNA oligo, concentration not stated.
[4] abbreviates: Eterna round: R95, input ligand: none.

As to “GGAGGACGAGCAGGAUAUUUUCACAUGAGGAUCACCCAUGUGUAAUCAGGGUAAUCCUCCGCCGAAAAGAAGGGUUCGGAAUAA [Mat - Exclusion NG 2 - Mod of JL - D82] (Eterna round: R96, puzzle: Exclusion NG 2)”, the “apparent KD of MS2 coat protein” value came to 60 nM (input ligand: FMN 200 uM), 52.4 nM under setting [1] and 70.5 nM (input ligand: none).

With “GGAGGUGAGGUAAGGAUAUCCUCCUCGAAAGAGGAGGAGAAGGUACAUGAGGAUCACCCAUGUAAGGAAGGAGG [AK-MS2ROC-r4-Bmoexclusion4-11] (Eterna round: R97, puzzle: Brourd's mod of Exclusion 4)”, the “apparent KD of MS2 coat protein” value by setting is: (input ligand: FMN 200 uM) 152 nM; (input ligand: none) 54.2 nM.

Turning to “GGAGUACAUGAGGAUCACCCAUGUGAGGAUAUGUAAGGAUAGUAGGUAAGGAAAGAGGACAGAAGGCACGGGAA [JR_Exclu1_Sub070] (puzzle: Exclusion 1)”, the “apparent KD of MS2 coat protein” value runs as follows: under setting [2], 46 nM; under setting [3], 41.4 nM; under setting [4], 67.2 nM.

In the case of “GGAUAAAAGACAGGAUAUGAGGAGAGAGAGAGAUCAGAAGGGUCACAUGAGGAUCACCCAUGUGAGUUCUCGAUAAGAAACACG [Prohibition 54 - Jieux - Exclusion NG 1] (Eterna round: R96, puzzle: Exclusion NG 1)”, the “apparent KD of MS2 coat protein” value runs as follows: (input ligand: FMN 200 uM) 15.5 nM; under setting [1], 12.7 nM; (input ligand: none) 18.4 nM.

In the case of “GGAUAAAAGUCAGGAUAUACGUAUCACUAACGAGUAGAAGGGACACAUGAGGAUCACCCAUGUGAGUUCUCAAUAAGAAACACG [Prohibition 62 - Jieux - Exclusion NG 1] (Eterna round: R96, puzzle: Exclusion NG 1)”, the “apparent KD of MS2 coat protein” value stood at 13.8 nM (input ligand: FMN 200 uM), 12.2 nM under setting [1] and 14.9 nM (input ligand: none).

As to “GGAUAGUGAGGAUAUCGAUGUUAGGAGGAGUAGAUAGGAGGCGAGAAGGCACAUGAGGAUCACCCAUGUAUGGA [JR_Exclu4_Sub068] (puzzle: Exclusion 4)”, under setting [3], the “apparent KD of MS2 coat protein” value was 47.8 nM.

“GGAUAGUGAGGAUAUGCAUACGGUGUAAGUCCCAGAUCGAAACAUGAGGAUCACCCAUGUAGAAGGCGCAAAAC [Begerila] (puzzle: Exclusion 2)”: under setting [3], the “apparent KD of MS2 coat protein” value stood at 20.2 nM.

Consider “GGAUAUAACGUAGGAUAUGAGAGAAACAGACGAUCAGAAGGACGACAUGAGGAUCACCCAUGUGAUCUAUCAAUAUUAUACAUG [Prohibition 97 - Jieux - Exclusion NG 1] (Eterna round: R96, puzzle: Exclusion NG 1)”, for which the “apparent KD of MS2 coat protein” value runs as follows: (input ligand: FMN 200 uM) 446 nM; under setting [1], 180 nM; (input ligand: none) 300 nM.

On to “GGAUAUCGAGGAUAUACAUGAGGAUCACCCAUGUUGAAUCCGUGGGAUGGCCGACGAUGUAGAAGGUGACUCAU [Eternabot (Original) Solution 27] (Eterna round: R97, puzzle: Exclusion 3)”, for which the “apparent KD of MS2 coat protein” value (input ligand: FMN 200 uM) was determined as 134 nM and the “apparent KD of MS2 coat protein” value (input ligand: none) is 232 nM.

For the sequence “GGAUCACAUGUUAGGAUAUGCAGGUCCUUGGAUCUGCAGAAGGGACAUGAGGAUCACCCAUGUCAUGAAGAUCC [Mat - Exclusion 4 - Eli Mod - D52] (Eterna round: R97, puzzle: Brourd's mod of Exclusion 4)”, the “apparent KD of MS2 coat protein” value runs as follows: (input ligand: FMN 200 uM) 43.4 nM; (input ligand: none) 21 nM.

Take “GGAUCAUAUGUCAGGAUAUGCAGGUCCUUGGAUCUGCAGAAGGGACAUGAGGAUCACCCAUGUCAUGUAGAUCC [Mat - Exclusion 4 - Eli Mod - D54] (Eterna round: R97, puzzle: Brourd's mod of Exclusion 4)”: the “apparent KD of MS2 coat protein” value runs as follows: (input ligand: FMN 200 uM) 116 nM; (input ligand: none) 25.3 nM.

Take “GGAUCCUGGGUCAGGAUAUGCUGACAGCUUUGUCAGCAGAAGGGACAUGAGGAUCACCCAUGUGCUCGGUUUUG [Magic-20] (puzzle: Brourd's mod of Exclusion 4)”: the “apparent KD of MS2 coat protein” value under setting [3] turned out to be 9.68 nM.

As for “GGAUCGAAAGUGAGGAUAUACCACUGGAUACAGUGGUAGAAGGCACAUGAGGAUCACCCAUGUCUCUACGAUCC [Fiskers BMX 4 - 42] (puzzle: Brourd's mod of Exclusion 4)”, the “apparent KD of MS2 coat protein” value reads like this: under setting [2], 39.9 nM; under setting [3], 13 nM; under setting [4], 15 nM.

With “GGAUCGAAUGUCAGGAUAUGCUGGUCCUUGGAUCAGCAGAAGGGACAUGAGGAUCACCCAUGUCCUCUCGGUCC [Eli bmx4 4.52] (Eterna round: R97, puzzle: Brourd's mod of Exclusion 4)”, the “apparent KD of MS2 coat protein” value runs as follows: (input ligand: FMN 200 uM) 222 nM; (input ligand: none) 26.5 nM.

Consider “GGAUCGAAUGUGAGGAUAUACCACUGGAUACAGUGGUAGAAGGCACAUGAGGAUCACCCAUGUCCUUACGAUCC [Fiskers BMX 4 - 47] (puzzle: Brourd's mod of Exclusion 4)”, for which the “apparent KD of MS2 coat protein” value under setting [3] is 74.2 nM.

Regarding “GGAUCGAAUGUGAGGAUAUGCUGGUCCUUGGAUCAGCAGAAGGCACAUGAGGAUCACCCAUGUGAAGACGGUCC [Eli bmx4 4.31] (Eterna round: R97, puzzle: Brourd's mod of Exclusion 4)”, the “apparent KD of MS2 coat protein” value (input ligand: FMN 200 uM) stood at 201 nM and the “apparent KD of MS2 coat protein” value (input ligand: none) is 41.4 nM.

For the sequence “GGAUCGAGUGUGAGGAUAUGCUGGUCCUUGGAUCAGCAGAAGGCACAUGAGGAUCACCCAUGUGGAGACGGUCC [JL bmx4 3.17] (puzzle: Brourd's mod of Exclusion 4)”, the “apparent KD of MS2 coat protein” value by setting is: under setting [2], 298 nM; under setting [3], 92.4 nM; under setting [4], 102 nM.

For “GGAUCUACUGAGGAUAUUACAUCACCCGACUGAUAAGAAGGCAGAACAUGAGGAUCACCCAUGUGGGUAGCCAC [Polaris5] (Eterna round: R97, puzzle: Exclusion 6)”, the “apparent KD of MS2 coat protein” value runs as follows: (input ligand: FMN 200 uM) 56.3 nM; (input ligand: none) 35.7 nM.

In the case of “GGAUCUUGGGUCAGGAUAUGCUGAUAGUUAUGUCAGCAGAAGGGACAUGAGGAUCACCCAUGUGCUUGGUUUUG [Magic-17] (Eterna round: R96, puzzle: Brourd's mod of Exclusion 4)”, the “apparent KD of MS2 coat protein” value (input ligand: FMN 200 uM) amounted to 40.9 nM, the “apparent KD of MS2 coat protein” value under setting [1] was determined as 12.7 nM and the “apparent KD of MS2 coat protein” value (input ligand: none) was 17.2 nM.

For the sequence “GGAUCUUGGGUCAGGAUAUGCUGAUAGUUAUGUCAGCAGAAGGGACAUGAGGAUCACCCAUGUGCUUGGUUUUG [Magic-17] (puzzle: Brourd's mod of Exclusion 4)”, the “apparent KD of MS2 coat protein” value under setting [3] was 13.1 nM.

For the sequence “GGAUGUUCAGAGGAUAUCGAUCCCGAGACCGGGCGAGAAGGUUGAACAUGAGGAUCACCCAUGUGAGGCCUAAC [Cebezais] (Eterna round: R97, puzzle: Exclusion 6)”, the “apparent KD of MS2 coat protein” value is 38.5 nM (input ligand: FMN 200 uM) and 12.7 nM (input ligand: none).

In the case of “GGCAAACAUGAGGAUCACCCAUGUCAGGAUAUUAGGCGAUCGUCGAUAGACGAUAGCCUGAGAAGGGACAUGCC [Mat - Exclusion 1 - Eli Mod - D16] (Eterna round: R97, puzzle: Exclusion 1)”, the “apparent KD of MS2 coat protein” value is, setting by setting: (input ligand: FMN 200 uM) 391 nM; (input ligand: none) 85.2 nM.

In the case of “GGCAAUAUGUAGGAUAUCGUAUCGGAAACGAUACGAGAAGGGCAAACAUGAGGAUCACCCAUGUUCUUCAAGCC [Fiskers Ex 6 - 11] (puzzle: Exclusion 6)”, the “apparent KD of MS2 coat protein” value under setting [3] was 15.6 nM.

(Values after the supplement of paper PMC9170038.)
